Data from patent US20150344535A1, “NEUROTROPHIN-TYROSINE KINASE RECEPTOR SIGNALING” (THE UNIVERSITY OF QUEENSLAND, priority 2012, published 2015).

Key:
PC12 cells = test: PC12 cell neurite outgrowth in response to EGF; format: cell-based; settings: vs no peptide or scrambled peptide
Experimental: To assess the effect of p75^NTR constructs (FIG. 2) or c29 peptide on TrkA-mediated neuritogenesis, transfected PC12 cells were grown in the presence of 100 ng/ml NGF for 3 days, with fresh medium and NGF treatments added on day 2. Cells were then imaged live on an Olympus (IX81) microscope fitted with a CO2 atmospheric chamber, using analySIS software. Four random images of 80-100 cells were taken for each treatment condition and images were determined by measuring polygon neurite length of all cells in each image. Data analysis was performed using Graphpad PRISM.
To determine whether the effect of the c29 peptide on enhancement of neurite outgrowth was NGF and TrkA specific, we repeated the experiment using EGF to stimulate differentiation.

p75^FL = biological target: T1, p75^FL (Rattus norvegicus, UniProt P07174); test: NGF-FITC binding by flow cytometry, p75^FL-transfected HEK293 cells
T1 construct: p75^FL—full-length p75^NTR; expressed in transfected cells; host or cells: HEK293
T1 sequence (P07174 30-425): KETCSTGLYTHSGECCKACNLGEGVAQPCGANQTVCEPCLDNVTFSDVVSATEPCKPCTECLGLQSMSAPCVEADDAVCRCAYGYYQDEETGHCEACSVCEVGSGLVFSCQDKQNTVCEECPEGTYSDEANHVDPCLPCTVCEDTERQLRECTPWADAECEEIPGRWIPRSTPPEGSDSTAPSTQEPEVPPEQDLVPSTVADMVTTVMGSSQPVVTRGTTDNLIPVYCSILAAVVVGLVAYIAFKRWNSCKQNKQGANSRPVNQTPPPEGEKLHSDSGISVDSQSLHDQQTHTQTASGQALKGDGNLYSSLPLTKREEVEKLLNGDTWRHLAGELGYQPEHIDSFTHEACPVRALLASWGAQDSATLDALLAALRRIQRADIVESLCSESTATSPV
Experimental: The NGF was conjugated to FITC by standard methods and detailed flow cytometry acquisition and analysis. For NGF-FITC conjugation 400 μg βNGF in 200 μl pH 8.5 NaHCO3 buffer was mixed with 5-10 μl of 10 mg/ml FITC in 100 μl DMSO for 10 hours at 4° C. on an orbital shaker set to 100 rpm. The excess FITC was removed by dialysis against 3 changes of 5 L of 10 mM Tris, 150 mM NaCl, 0.2% acetic acid, pH 8.2 for 24 hours at 4° C. Conjugate F/P characterization was determined by measuring absorbance at 280 nm and 495 nm according to manufacturer's instructions. Biological activity of the NGF-FITC conjugate was tested by performing PC12 cell neurite outgrowth assays unlabelled NGF, and comparing the levels of neuritogenesis. NGF-FITC conjugates were used within 4 weeks of synthesis.
For the flow cytometry NGF binding assays, fluorescence cell parameters of at least 20,000 events for PC12 cells and 100,000 events for HEK293 cells were acquired by flow cytometry list mode and measurements were performed on a single cell basis (with compensation for double event counting). Dead cells and debris were gated out of the analysis on the basis of forward scatter fluorescence, and mean, median and maximal fluorescence values of the gated cell populations were analysed using FACS Diva Software (Becton-Dickinson Biosciences) and FACS Express Software (Becton-Dickinson Biosciences).
Background fluorescence of HEK293 cells was non-transfected cells (±c29 or scrambled peptide treatment) treated with 26 nM NGF-FITC. For PC12 cells, the control population was cells that had not been treated with NGF-FITC. Analysis of real-time NGF-FITC receptor binding experiments was performed on 550,000-600,000 cells at 4° C. in serum free NB medium and binding kinetics were calculated from raw data files compressed to 50,000 binding events using FlowJo and MatLab Software. Data was plotted with the use of GraphPad Prism.
Only NGF-FITC preparations that promoted equivalent neurite outgrowth of PC12 cells to that of unlabelled NGF were used in binding experiments. To investigate NGF binding, PC12 or transfected HEK293 cells were serum starved for 4 hours, harvested, washed with Dulbecco's Modified Eagle Medium (DMEM), and counted. When used, c29 or scrambled peptide were added to cultures for the third hour of the serum starvation procedure. 1×10^7 cells/ml suspended in 500 μl of serum-free DMEM were incubated with 26 nM NGF-FITC on ice for 60 minutes before analysis. For binding competition assays, following 1 hour in NGF-FITC, cells were washed with ice-cold PBS containing 0.1% normal bovine serum and incubated on ice with unlabeled NGF at concentrations ranging from 100 pM to 10 μM for 30 minutes, then washed twice in PBS before being analysed on a BD Flow Cytometer FACS Scan (Becton-Dickinson).
To determine association rates, cells were harvested as above following serum starvation and peptide treatment, and were resuspended in 3 ml of serum-free Neurobasal (NB) medium containing […] (Invitrogen) and […] nonessential amino acids, prior to analysis on the flow cytometer. Cells were analysed for 30 seconds prior to the addition of 26 nM NGF-FITC, and then for 30 minutes in real time with an analysis rate of 200-300 events/sec.

TrkA and p75^NTR = test: Surface biotinylation of receptors in PC12 cells; format: cell-based; settings: 1 μM peptide, with or without NGF
Experimental: FIG. 10: The juxtamembrane domain of p75^NTR increases the association of NGF to cells expressing TrkA. (A and B) Dose response graphs of the proportion (%) of PC12 cells with fluorescence intensity above background following treatment with 26 […] NGFFITC, a FITC-conjugated antibody to the extracellular domain of p75^NTR (A), or an antibody to TrkA (detected using an anti-rabbit Alexa 594 secondary) (B), after pretreatment with increasing concentrations of […] peptide. (n=3 experiments per data point; mean±SEM *p<0.05, **p<0.01) (C) Representative western blots (WB) of TrkA and p75^NTR present in streptavidin precipitates (surface biotin), or lysate flow through of PC12 cells that had been treated for 1 hour with NGF and/or c29 and scrambled (SC) peptide, prior to the surface proteins being labelled with biotin for 90 minutes on ice.

[1] = 26 nM NGF-FITC 60 minutes, c.f. p75^FL alone

Question: What does the source list for “KRWNSCKQNKQGANSRPVNQTPPPEGEKL (c29- Fragment of p75ICD) [29 amino acid peptide of the p75NTR juxtamembrane Chopper domain; delivered to cells linked to PTD4 or disulfide-linked carrier]”?
Answer: neuritogenesis in EGF-treated cultures (PC12 cells): no effect on neuritogenesis; % of cell population with FITC above background (p75^FL; [1]): 100.5 ± 14.2%; Maximal fluorescence per cell of the population (p75^FL; [1]): 98.7 ± 4.3%; Mean fluorescence per FITC-positive cell (p75^FL; [1]): 105.2 ± 3.6%; Median population fluorescence (p75^FL; [1]): 103.8 ± 11.2%; half time of NGF-FITC binding (p75^FL; 26 nM NGF-FITC, cells treated with c29): 7.1 min; fluorescence profile of the population (p75^FL; pre-treated with c29, NGF-FITC): did not change; surface or total receptor levels of TrkA and p75^NTR (TrkA and p75^NTR): no significant difference
